Test results published in patent US20100255012A1.

Key:
Assay in all cases: non-covalent nano-electrospray mass spectrometry at 0.01-10 µM, value at low concentrations; self-association
[1] = target: 2F8-HG CH3 mutant F273A
[2] = target: 2F8-HG-L236V
[3] = target: 2F8-HG-Y275A

Q: For 2F8-HG CH3 mutant F273A (antibody), which percentage molecules present as monomers [1] is on record?
A: Its percentage molecules present as monomers is 100%.

Q: How did the percentage molecules present as monomers [2] turn out when 2F8-HG-L236V (antibody) was run?
A: The percentage molecules present as monomers was 100%.

Q: Which percentage molecules present as monomers [3] does the source give for 2F8-HG-Y275A (antibody) here?
A: Its percentage molecules present as monomers is 100%.
